This is an account of results in patent US20230338569A1, “NaPi2b-TARGETED POLYMER ANTIBODY-DRUG CONJUGATE FOR THE TREATMENT OF OVARIAN CANCER” (Mersana Therapeutics, Inc., priority 2021, published 2023).

For the test, the system named is patients with higher NaPi2b expression. Briefly: MER-XMT-1536-1 clinical trial (ongoing, preliminary data), XMT-1536 monotherapy. It is filed as in vivo, human. Particulars: patients with higher NaPi2b expression (n=47); preliminary data from MER-XMT-1536-1.

B1: XMT-1536: NaPi2b-targeted polymer antibody-drug conjugate: about 8-12 AF-HPA molecules conjugated to cysteines of antibody XMT-1535 via a PHF scaffold (conjugate, chains of the INN, looked up)
VH: QVQLVQSGAEVVKPGASVKMSCKASGYTFTGYNIHWVKQAPGQGLEWIGAIYPGNGDTSYKQKFRGRATLTADTSTSTVYMELSSLRSEDSAVYYCARGETARATFAYWGQGTLVTVSS
VL: DIQMTQSPSSLSASVGDRVTITCSASQDIGNFLNWYQQKPGKTVKVLIYYTSSLYSGVPSRFSGSGSGTDYTLTISSLQPEDFATYYCQQYSKLPLTFGQGTKLELK
modifications: AF-HPA payload via PHF polymer scaffold
notes: NaPi2b-targeted polymer antibody-drug conjugate: about 8-12 AF-HPA molecules conjugated to cysteines of antibody XMT-1535 via a PHF scaffold
Consider B1, for which the “DCR (disease control rate)” value came out at 74%, the “ORR (objective response rate)” value is listed as 32% and the “median duration of response” value is “approximately 5 months”.
